Results taken from patent US10822593B2, “Alcohol dehydrogenase mutant and application thereof in synthesis of diaryl chiral alcohols” (priority 2018, dated 2020).

Assays:
Type in all cases: biochemical
[1] = target: alcohol dehydrogenase KpADH, wild type, SEQ ID No. 2 (Vanderwaltozyma polyspora, UniProt A7TM80); assay: Kinetic analysis, reduction of CPMK by wild type KpADH; settings: substrate CPMK, coenzyme NADPH, pH 7.0, 30° C.
Method: (§1) Adopting a total reaction system of 200 μL, including: 1.0 mM NADPH, 1.0 mM substrate CPMK and sodium phosphate buffer (PBS, 100 mM, pH 7.0), fully and evenly mixing, maintaining at 30° C. for 2 min, adding an appropriate amount of enzyme solution, and detecting the change in light absorption at 340 nm.
(§2) The enzyme activity was calculated by the following formula: […]
(§3) in the formula, EW is the change in absorbance at 340 nm in 1 min; V is the volume of a reaction solution in mL; 6220 is the molar extinction coefficient of NADPH in L/(mol·cm); and 1 is the optical path distance in cm. One activity unit (U) corresponds to the amount of enzyme required to catalyze the oxidation of 1 μmol NADPH per minute under the above conditions.
(§4) A column used for purification was a nickel affinity column HisTrap FF crude, and purification was achieved through affinity chromatography using a histidine tag on recombinant protein. The nickel column was equilibrated with a solution A first, a crude enzyme solution was loaded, a penetrating peak was further eluted off using the solution A, and after equilibrium, a solution B (20 mM sodium phosphate, 500 mM NaCl, and 1000 mM imidazole, pH 7.4) was used for gradient elution to elute off the recombinant protein bound to the nickel column, so as to obtain the recombinant alcohol dehydrogenase mutant. The purified protein was subjected to activity measurement (CPMK as substrate, and NADPH as coenzyme) and SDS-PAGE analysis. […] The purified alcohol dehydrogenase protein was then replaced into a Tris-HCl (100 mM, pH 7.0) buffer using a Hi Trap Desalting column (GE Healthcare).
(§5) The activity of KpADH at different substrate concentrations and coenzyme concentrations was determined, and a double reciprocal curve was made based on the reciprocal of activity and substrate concentration to calculate kinetic parameters.

[2] = system: O=C(c1ccc(Cl)cc1)c1ccccn1; assay: Kinetic analysis, reduction of CPMK by mutant M1; settings: other: substrate CPMK, coenzyme NADPH, pH 7.0, 30° C.
Method: In an embodiment of the present disclosure, the mutant includes the substitution of valine for serine at position 196 of the alcohol dehydrogenase with the amino acid sequence shown in SEQ ID No. 2, which is named M1.
as §1, §2, §3, §4, §5

[3] = system: O=C(c1ccc(Cl)cc1)c1ccccn1; assay: Kinetic analysis, reduction of CPMK by mutant M2; settings: other: substrate CPMK, coenzyme NADPH, pH 7.0, 30° C.
Method: In an embodiment of the present disclosure, the mutant includes the substitution of tryptophan for serine at position 196 of the alcohol dehydrogenase with the amino acid sequence shown in SEQ ID No. 2, which is named M2.
as §1, §2, §3, §4, §5

[4] = system: O=C(c1ccc(Cl)cc1)c1ccccn1; assay: Kinetic analysis, reduction of CPMK by mutant M3; settings: other: substrate CPMK, coenzyme NADPH, pH 7.0, 30° C.
Method: In an embodiment of the present disclosure, the mutant includes the substitution of proline for serine at position 196 of the alcohol dehydrogenase with the amino acid sequence shown in SEQ ID No. 2, which is named M3.
as §1, §2, §3, §4, §5

[5] = system: O=C(c1ccc(Cl)cc1)c1ccccn1; assay: Kinetic analysis, reduction of CPMK by mutant M4; settings: other: substrate CPMK, coenzyme NADPH, pH 7.0, 30° C.
Method: In an embodiment of the present disclosure, the mutant includes the substitution of glycine for serine at position 196 of the alcohol dehydrogenase with the amino acid sequence shown in SEQ ID No. 2, which is named M4.
as §1, §2, §3, §4, §5

[6] = system: O=C(c1ccc(Cl)cc1)c1ccccn1; assay: Kinetic analysis, reduction of CPMK by mutant M5; settings: other: substrate CPMK, coenzyme NADPH, pH 7.0, 30° C.
Method: In an embodiment of the present disclosure, the mutant includes the substitution of glycine for serine at position 196 of the alcohol dehydrogenase with the amino acid sequence shown in SEQ ID No. 2, and the substitution of valine for phenylalanine at position 161, which is named M5.
as §1, §2, §3, §4, §5

[7] = system: O=C(c1ccc(Cl)cc1)c1ccccn1; assay: Kinetic analysis, reduction of CPMK by wild type KpADH; settings: other: substrate CPMK, coenzyme NADPH, pH 7.0, 30° C.
Method: as §1, §2, §3, §4, §5

With `O=C(c1ccc(Cl)cc1)c1ccccn1` [CPMK, (4-chlorophenyl)-(pyridin-2-yl)-methanone] as the molecule, how does the Kcat/Km [1] read?
The Kcat/Km was 28900 M⁻¹ s⁻¹.

For “alcohol dehydrogenase KpADH (SEQ ID No. 2) mutant M1, S196V (Vanderwaltozyma polyspora DSM 70294; S196V)”, which Km [2] is on record?
Its Km is 720 µM.

And the Vmax [2]?
The Vmax was 21.3 µmol/min/mg.

What about the kcat [2] of the same molecule?
The kcat was 17 s⁻¹.

And the kcat/Km [2]?
The kcat/Km was 23600 M⁻¹ s⁻¹.

“alcohol dehydrogenase KpADH (SEQ ID No. 2) mutant M2, S196W (Vanderwaltozyma polyspora DSM 70294; S196W)” was tested. Which Km [3] did it give?
Its Km is 702 µM.

And the Vmax [3]?
Its Vmax is 21.3 µmol/min/mg.

What about the kcat [3] of the same molecule?
Its kcat is 14.2 s⁻¹.

And the kcat/Km [3]?
The kcat/Km was 20300 M⁻¹ s⁻¹.

“alcohol dehydrogenase KpADH (SEQ ID No. 2) mutant M3, S196P (Vanderwaltozyma polyspora DSM 70294; S196P)” was tested. Which Km [4] did it give?
Its Km is 604 µM.

And the Vmax [4]?
Its Vmax is 22.3 µmol/min/mg.

What about the kcat [4] of the same molecule?
Its kcat is 14.8 s⁻¹.

What about the kcat/Km [4] of the same molecule?
Its kcat/Km is 24600 M⁻¹ s⁻¹.

“alcohol dehydrogenase KpADH (SEQ ID No. 2) mutant M4, S196G (Vanderwaltozyma polyspora DSM 70294; S196G)” was tested. Which Km [5] did it give?
Its Km is 730 µM.

And the Vmax [5]?
The Vmax was 26.5 µmol/min/mg.

What about the kcat [5] of the same molecule?
Its kcat is 17.6 s⁻¹.

And the kcat/Km [5]?
The kcat/Km was 24100 M⁻¹ s⁻¹.

With “alcohol dehydrogenase KpADH (SEQ ID No. 2) mutant M5, S196G/F161V (Vanderwaltozyma polyspora DSM 70294; F161V/S196G)” as the molecule, how does the Km [6] read?
The Km was 690 µM.

What about the Vmax [6] of the same molecule?
The Vmax was 17.7 µmol/min/mg.

And the kcat [6]?
Its kcat is 11.8 s⁻¹.

What about the kcat/Km [6] of the same molecule?
The kcat/Km was 17100 M⁻¹ s⁻¹.

“alcohol dehydrogenase KpADH, wild type, SEQ ID No. 2 (Vanderwaltozyma polyspora DSM 70294)” was tested. Which Km [7] did it give?
Its Km is 410 µM.

What about the Vmax [7] of the same molecule?
Its Vmax is 17.9 µmol/min/mg.

And the kcat [7]?
The kcat was 11.8 s⁻¹.

And the kcat/Km [7]?
Its kcat/Km is 28900 M⁻¹ s⁻¹.
